Results as given in patent publication US20240132624A1 (Ablynx, published 2024).
Positions count from the first letter of the chain named.

B1: T0263018B11 A33S (VHH, name in Kabat numbering)
VHH: EVQLVESGGGVVQPGGSLRLSCAASGFTFSSYSMYWVRQAPGKGLEWVSAISSGGGSTDYADSVKGRFTISRDNSKNTLYLQMNSLRPEDTALYYCAADTLYTSLTWYSYWGQGTLVTVSS
notes: FLAG3-His6 tagged
B2: T0263018B11 D58E (VHH, name in Kabat numbering)
VHH: B1 VHH with S33A, D59E
notes: FLAG3-His6 tagged
B3: T0263018B11 G26E (VHH, name in Kabat numbering)
VHH: B1 VHH with G26E, S33A
notes: FLAG3-His6 tagged
B4: T0263018B11 F29V (VHH, name in Kabat numbering)
VHH: B1 VHH with F29V, S33A
notes: FLAG3-His6 tagged
B5: T0263018B11 G55D (VHH, name in Kabat numbering)
VHH: B1 VHH with S33A, G56D
notes: FLAG3-His6 tagged
B6: T0263018B11 G26D (VHH, name in Kabat numbering)
VHH: B1 VHH with G26D, S33A
notes: FLAG3-His6 tagged
B7: T0263018B11 F29H (VHH, name in Kabat numbering)
VHH: B1 VHH with F29H, S33A
notes: FLAG3-His6 tagged
B8: T0263018B11 S30E (VHH, name in Kabat numbering)
VHH: B1 VHH with S30E, S33A
notes: FLAG3-His6 tagged
B9: T0263018B11 F29G (VHH, name in Kabat numbering)
VHH: B1 VHH with F29G, S33A
notes: FLAG3-His6 tagged
B10: T0263018B11 F27Y (VHH, name in Kabat numbering)
VHH: B1 VHH with F27Y, S33A
notes: FLAG3-His6 tagged
B11: T0263018B11 A94S (VHH, name in Kabat numbering)
VHH: B1 VHH with S33A, A98S
notes: FLAG3-His6 tagged
B12: T0263018B11 L100aM (VHH, name in Kabat numbering)
VHH: B1 VHH with S33A, L105M
notes: FLAG3-His6 tagged
B13: T0263018B11 S30D (VHH, name in Kabat numbering)
VHH: B1 VHH with S30D, S33A
notes: FLAG3-His6 tagged
B14: T0263018B11 G26Y (VHH, name in Kabat numbering)
VHH: B1 VHH with G26Y, S33A
notes: FLAG3-His6 tagged
B15: T0263018B11 G26S (VHH, name in Kabat numbering)
VHH: B1 VHH with G26S, S33A
notes: FLAG3-His6 tagged
B16: T0263018B11 G26H (VHH, name in Kabat numbering)
VHH: B1 VHH with G26H, S33A
notes: FLAG3-His6 tagged
B17: T0263018B11 G54E (VHH, name in Kabat numbering)
VHH: B1 VHH with S33A, G55E
notes: FLAG3-His6 tagged
B18: T0263018B11 D58V (VHH, name in Kabat numbering)
VHH: B1 VHH with S33A, D59V
notes: FLAG3-His6 tagged
B19: T0263018B11 G54L (VHH, name in Kabat numbering)
VHH: B1 VHH with S33A, G55L
notes: FLAG3-His6 tagged
B20: T0263018B11 G54P (VHH, name in Kabat numbering)
VHH: B1 VHH with S33A, G55P
notes: FLAG3-His6 tagged
B21: T0263018B11 F27L (VHH, name in Kabat numbering)
VHH: B1 VHH with F27L, S33A
notes: FLAG3-His6 tagged
B22: T0263018B11 D58Y (VHH, name in Kabat numbering)
VHH: B1 VHH with S33A, D59Y
notes: FLAG3-His6 tagged
B23: T0263018B11 G26N (VHH, name in Kabat numbering)
VHH: B1 VHH with G26N, S33A
notes: FLAG3-His6 tagged
B24: T0263018B11 D58H (VHH, name in Kabat numbering)
VHH: B1 VHH with S33A, D59H
notes: FLAG3-His6 tagged
B25: T0263018B11 G26M (VHH, name in Kabat numbering)
VHH: B1 VHH with G26M, S33A
notes: FLAG3-His6 tagged
B26: T0263018B11 A93V (VHH, name in Kabat numbering)
VHH: B1 VHH with S33A, A97V
notes: FLAG3-His6 tagged
B27: T0263018B11 A33T (VHH, name in Kabat numbering)
VHH: B1 VHH with S33T
notes: FLAG3-His6 tagged
B28: T0263018B11 F29D (VHH, name in Kabat numbering)
VHH: B1 VHH with F29D, S33A
notes: FLAG3-His6 tagged
B29: T0263018B11 F29S (VHH, name in Kabat numbering)
VHH: B1 VHH with F29S, S33A
notes: FLAG3-His6 tagged
B30: T0263018B11 G26Q (VHH, name in Kabat numbering)
VHH: B1 VHH with G26Q, S33A
notes: FLAG3-His6 tagged
B31: T0263018B11 A33V (VHH, name in Kabat numbering)
VHH: B1 VHH with S33V
notes: FLAG3-His6 tagged

These binders were tested against T1, human FcRn/b2M (human, UniProt P61769 21-119, biotinylated) (assay: SPR pH 6.0;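 further: surface plasmon resonance kinetics at 25 °C, diluted periplasmic extracts injected over immobilized ligand surfaces, 120 s association then 600–3600 s dissociation, running buffer containing 150 mM NaCl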).
T1 construct: bought recombinant biotinylated protein (ACRO FCM-H82W4 or Immunitrack ITF01); also called hFcRn; hFcRn/hb2M
Experimental: (§1) All kinetic measurements have been performed on ProteOn XPR36 (BioRad Laboratories, Inc.), MASS-2 (Sierra sensors, Gmbh) or SPR-32 (Bruker Corporation). […] The phytip purified periplasmic extracts were diluted 1:10 in running buffer (CPA+150 mM NaCl+0.005% Tw20 at pH 5.5, pH 6.0 or pH 7.4) and injected over the ligand surfaces (association: 120 s at 45 μL/min; dissociation: 600s-3600 s at 45 μL/min). Experiments were carried out at 25° C.

koff [s⁻¹]	Binder
0.0015	B1
0.0024	B2
0.00095	B3
0.0021	B4
0.0017	B5
0.0012	B6
0.0039	B7
0.0019	B8
0.0033	B9
0.0012	B10
0.0013	B11
0.015	B12
0.0032	B13
0.00065	B14
0.00091	B15
0.00055	B16

koff [s⁻¹]	Binder
0.0016	B17
0.015	B18
0.0016	B19
0.0016	B20
0.0013	B21
0.01	B22
0.00081	B23
0.012	B24
0.00063	B25
0.003	B26
0.00011	B27
0.0036	B28
0.0016	B29
0.00065	B30
0.00022	B31

The binders below were run against T2, cyno FcRn/b2M (cyno, UniProt Q8SPV9 24-297; Q8SPW0 21-119, biotinylated) (assay: SPR pH 6.0;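 further: surface plasmon resonance kinetics at 25 °C, diluted periplasmic extracts injected over immobilized ligand surfaces, 120 s association then 600–3600 s dissociation, running buffer containing 150 mM NaCl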).
T2 construct: bought recombinant biotinylated protein (Immunitrack ITF05 or ACRO FCM-C82W5); also called cFcRn; cFcRn/cb2M
T2 sequence (Q8SPV9 24-297 limits assumed, chain 1 of 2): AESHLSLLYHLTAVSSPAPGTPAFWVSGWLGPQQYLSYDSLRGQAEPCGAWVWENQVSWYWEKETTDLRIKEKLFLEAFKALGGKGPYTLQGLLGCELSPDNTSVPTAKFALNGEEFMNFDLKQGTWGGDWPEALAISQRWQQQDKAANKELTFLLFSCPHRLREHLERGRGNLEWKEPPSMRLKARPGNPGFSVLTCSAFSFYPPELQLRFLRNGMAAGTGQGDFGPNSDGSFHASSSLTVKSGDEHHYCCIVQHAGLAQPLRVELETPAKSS
T2 sequence (Q8SPW0 21-119 limits assumed, chain 2 of 2): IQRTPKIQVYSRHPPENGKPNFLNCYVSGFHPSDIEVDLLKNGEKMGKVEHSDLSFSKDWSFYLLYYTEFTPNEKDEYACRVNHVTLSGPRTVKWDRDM
Experimental: as §1

koff [s⁻¹]	Binder
0.0013	B1
0.0012	B2
0.00081	B3
0.0016	B4
0.0013	B5
0.00095	B6
0.0031	B7
0.0016	B8
0.0025	B9
0.00042	B10
0.0011	B11
0.013	B12
0.0026	B13
0.00055	B14
0.00079	B15
0.00016	B16

koff [s⁻¹]	Binder
0.0016	B17
0.0025	B18
0.0017	B19
0.0017	B20
0.001	B21
0.002	B22
0.00037	B23
0.002	B24
7.1e-05	B25
0.0021	B26
0.00011	B27
0.0028	B28
0.0013	B29
1.3e-05	B30
0.00024	B31

The binders below were run against T1, human FcRn/b2M (assay: SPR off-rate; pH 7.4 vs pH 6.0;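 further: surface plasmon resonance with diluted periplasmic extracts flowed over ligand surfaces, 120 s association and 600–3600 s dissociation at 25 °C, running buffer containing 150 mM NaCl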).
Experimental: as §1

kd ratio pH 7.4/6.0	Binder
39	B1
33	B2
44	B3
42	B4
41	B5
53	B6
36	B7
37	B8
45	B9
45	B10
35	B11
42	B12
41	B13
42	B14
52	B15
62	B16

kd ratio pH 7.4/6.0	Binder
29	B17
9	B18
26	B19
21	B20
38	B21
9	B22
53	B23
7	B24
52	B25
50	B26
36	B27
39	B28
41	B29
53	B30
37	B31

What follows are binders tested against T2, cyno FcRn/b2M (assay: SPR off-rate; pH 7.4 vs pH 6.0;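 further: surface plasmon resonance with diluted periplasmic extracts flowed over ligand surfaces, 120 s association and 600–3600 s dissociation at 25 °C, running buffer containing 150 mM NaCl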).
Experimental: as §1

kd ratio pH 7.4/6.0	Binder
50	B1
32	B2
62	B3
54	B4
54	B5
61	B6
42	B7
46	B8
56	B9
93	B10
43	B11
41	B12
65	B13
51	B14
67	B15
159	B16

kd ratio pH 7.4/6.0	Binder
39	B17
11	B18
35	B19
24	B20
48	B21
12	B22
86	B23
11	B24
349	B25
67	B26
54	B27
54	B28
45	B29
2010	B30
53	B31

These binders were tested against T1, human FcRn/b2M (assay: SPR pH 7.4;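 further: surface plasmon resonance kinetics, periplasmic extracts diluted 1:10 flowed over immobilized target at 25 °C, 120 s association then 600–3600 s dissociation, buffer with 150 mM NaCl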).
Experimental: as §1

koff [s⁻¹]	Binder
0.059	B1
0.08	B2
0.042	B3
0.089	B4
0.07	B5
0.063	B6
0.14	B7
0.071	B8
0.15	B9
0.054	B10
0.046	B11
0.62	B12
0.13	B13
0.027	B14
0.047	B15
0.034	B16

koff [s⁻¹]	Binder
0.046	B17
0.14	B18
0.041	B19
0.033	B20
0.05	B21
0.089	B22
0.042	B23
0.079	B24
0.033	B25
0.15	B26
0.0038	B27
0.14	B28
0.066	B29
0.034	B30
0.0082	B31

The binders below were run against T2, cyno FcRn/b2M (assay: SPR pH 7.4;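 further: surface plasmon resonance kinetics, periplasmic extracts diluted 1:10 flowed over immobilized target at 25 °C, 120 s association then 600–3600 s dissociation, buffer with 150 mM NaCl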).
Experimental: as §1

koff [s⁻¹]	Binder
0.065	B1
0.038	B2
0.05	B3
0.086	B4
0.07	B5
0.058	B6
0.13	B7
0.073	B8
0.14	B9
0.039	B10
0.047	B11
0.51	B12
0.17	B13
0.028	B14
0.053	B15
0.026	B16

koff [s⁻¹]	Binder
0.062	B17
0.027	B18
0.06	B19
0.041	B20
0.048	B21
0.025	B22
0.032	B23
0.022	B24
0.025	B25
0.14	B26
0.0058	B27
0.15	B28
0.059	B29
0.026	B30
0.013	B31
